Stoichiometry N, fraction of dimers and fraction of monomers data for three molecules are collected here from paper doi:10.1101/293530.

The term stoichiometry N denotes a count of units in the complex or per binding partner.

One assay deals with mCherry-sCD95L. Put plainly: fluorescence correlation spectroscopy.
In the next assay the target is mCherry-IZ-sCD95L. Briefly: fluorescence correlation spectroscopy.
Assay [1] concerns the target T1, CD95-mEos2 (human), P25445.
T1 chain: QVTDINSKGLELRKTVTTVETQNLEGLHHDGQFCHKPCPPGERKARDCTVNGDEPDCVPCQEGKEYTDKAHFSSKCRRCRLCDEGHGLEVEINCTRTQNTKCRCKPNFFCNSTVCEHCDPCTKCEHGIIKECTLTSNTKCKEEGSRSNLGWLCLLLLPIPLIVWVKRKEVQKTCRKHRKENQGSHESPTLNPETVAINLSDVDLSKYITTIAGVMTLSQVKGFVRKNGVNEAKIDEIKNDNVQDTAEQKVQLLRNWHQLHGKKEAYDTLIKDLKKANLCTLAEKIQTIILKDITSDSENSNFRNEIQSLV
Briefly: quantitative PALM. The following applies: remark: other sources report otherwise.

Consider mCherry-sCD95L (ligand), for which the stoichiometry N in the assay with mCherry-sCD95L was 3.
mCherry-IZ-sCD95L (ligand) registered a stoichiometry N with mCherry-IZ-sCD95L of 3.

B1: CD95-mEos2, P25445 26-335 (receptor)
chain: T1 chain
Turning to B1, in assay [1], the fraction of dimers was 42% and the fraction of monomers was found to be 58%.
